Values of other authors as cited in PMC7599640.

Biological target: alpha-bungarotoxin (Bungarus multicinctus) (UniProt P60615)
Sequence of UniProt P60615 (P60615 22-95): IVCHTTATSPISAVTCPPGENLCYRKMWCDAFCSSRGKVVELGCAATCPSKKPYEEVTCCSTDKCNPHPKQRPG

Nicotinic acetylcholine receptor (from UniProt P02710)
Kd: 0.4 nM
